Reference: patent US20260242478A1 (published 2026)
Where no end group is shown, it is not given here.

Key:
[1] = target: T1, Anti-PSMA Fab (SEQ ID NOs: 19, 20); assay: phage ELISA on captured PSMA Fab, wells pre-incubated with the competitor PSMA antigen
T1 construct: Biotinylated PSMA Fab captured on neutravidin coated plates in the phage ELISA; also called 006 PSMA Fab
Protocol: (§1) Clonal phage were harvested as crude supernatants and screened via standard ELISAs. […] Prior to the addition of clonal phage. wells were incubated with blocking buffer and PSMA antigen or blocking buffer alone. Without washing or aspirating, clonal phage supernatants were then added to the wells and incubated for a short time. Wells were then washed followed by detection of bound phage using a horse radish conjugated anti-M13 antibody.

[2] = target: T1, Anti-PSMA Fab (SEQ ID NOs: 19, 20); assay: phage ELISA; biotinylated PSMA Fab on neutravidin plate, bound phage detected with anti-M13-HRP;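 further: crude clonal phage supernatants added, without a wash, to wells pretreated with PSMA antigen in blocking buffer or with blocking buffer only, then briefly incubated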
Protocol: as §1

[3] = target: T2, Anti-PSMA Fab (SEQ ID NOs: 19, 20); assay: phage binding ELISA; biotinylated PSMA Fab on neutravidin plates, clonal phage supernatant, anti-M13 HRP detection
T2 construct: Biotinylated and captured on neutravidin coated plates in the phage ELISA; also called 006 PSMA Fab
Protocol: as §1

[4] = target: T2, Anti-PSMA Fab (SEQ ID NOs: 19, 20); assay: phage binding ELISA; Fab-coated wells pre-incubated with PSMA antigen as competitor, anti-M13 HRP detection
Protocol: as §1

[5] = target: T3, Anti-PSMA Fab (SEQ ID NOs: 19, 20); assay: phage binding ELISA; PSMA Fab on plate pre-incubated with PSMA antigen as competitor, anti-M13 HRP detection;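 further: crude clonal phage supernatants added without washing to wells preincubated with PSMA in blocking buffer, compared with wells receiving blocking buffer only, then bound phage detected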
T3 construct: In the phage ELISA the PSMA Fab was biotinylated and captured on neutravidin coated plates; also called 006 PSMA Fab
Protocol: as §1

[6] = target: T3, Anti-PSMA Fab (SEQ ID NOs: 19, 20); assay: phage binding ELISA; biotinylated PSMA Fab on neutravidin plate, clonal phage supernatant, anti-M13 HRP detection;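 further: wells were preincubated with blocking buffer either containing PSMA antigen or without it before crude phage supernatant was added, briefly incubated, then washed prior to detection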
Protocol: as §1

Row | Binder | Anti-PSMA Fab signal in the presence of PSMA (phage binding ELISA) [1] | Anti-PSMA Fab signal (phage binding ELISA) [2] | Anti-PSMA Fab signal [3] | Anti-PSMA Fab signal in the presence of PSMA [4] | also measured
1 | AAKMCVPWWMCEVM (tested as crude clonal phage supernatant) [Phage-2065] | 0.0753 | 1.77 |  |  | 
2 | EAIWCVPKWMCEGM (tested as clonal phage supernatant) [Phage-2050] |  |  | 1.78 | 0.0786 | 
3 | EHIWCKPDWMCSGF (tested as crude clonal phage supernatant) [Phage-2060] | 0.0871 | 1.77 |  |  | 
4 | DTMRCVPEWMCTGF (tested as crude clonal phage supernatant) [Phage-2059] | 0.066 | 1.77 |  |  | 
5 | PIKLCTPSWMCIGF (tested as crude clonal phage supernatant) [Phage-2063] | 0.107 | 1.77 |  |  | 
6 | ADKWCIPEWMCEMN (Tested as clonal phage supernatant; not shown: pIII filament protein of the bacteriophage to which the peptide is fused for display) [Phage-2076 (peptide-180 library clone, SEQ ID NO: 2392)] |  |  |  |  | Anti-PSMA Fab signal in the presence of PSMA [5]: 0.0844; Anti-PSMA Fab (SEQ ID NOs: 19, 20) signal [6]: 1.76
7 | EVHRCIPAWMCTTP (tested as clonal phage supernatant) [Phage-2046] |  |  | 1.79 | 0.0934 | 
8 | EMKWCIPAWMCQSH (tested as crude clonal phage supernatant) [Phage-2061] | 0.0858 | 1.77 |  |  | 
9 | WLNWCTPEWMCNGF (tested as clonal phage supernatant) [Phage-2056] |  |  | 1.77 | 0.147 | 
10 | QGNWCKPAWMCSGF (cysteine pairing not given here; also: fused to phage pIII, pIII sequence and linker not given here, Tested as clonal phage supernatant; not shown: pIII filament protein of the bacteriophage to which the peptide is fused for display) [Phage-2072 (peptide-180 library clone, SEQ ID NO: 2388)] |  |  |  |  | Anti-PSMA Fab signal in the presence of PSMA [5]: 0.0983; Anti-PSMA Fab (SEQ ID NOs: 19, 20) signal [6]: 1.76
11 | VDKWCIPQWMCDDQ (tested as clonal phage supernatant) [Phage-2054] |  |  | 1.77 | 0.116 | 
12 | IDKWCIPMWMCEMS (tested as clonal phage supernatant) [Phage-2045] |  |  | 1.79 | 0.0708 | 
13 | VPKWCTPSWMCEST (tested as clonal phage supernatant) [Phage-2043] |  |  | 1.79 | 0.0787 | 
14 | FEMWCTPSWMCDGF (tested as crude clonal phage supernatant) [Phage-2070] | 0.0932 | 1.76 |  |  | 
15 | SEKWCIPDWMCQVW (tested as crude clonal phage supernatant) [Phage-2068] | 0.0929 | 1.76 |  |  | 
16 | EGKWCTPIWMCQGF (tested as crude clonal phage supernatant) [Phage-2062] | 0.143 | 1.77 |  |  | 
17 | AEKLCIPPWMCMLS (Tested as clonal phage supernatant; not shown: pIII filament protein of the bacteriophage to which the peptide is fused for display) [Phage-2077 (peptide-180 library clone, SEQ ID NO: 2393)] |  |  |  |  | Anti-PSMA Fab signal in the presence of PSMA [5]: 0.101; Anti-PSMA Fab (SEQ ID NOs: 19, 20) signal [6]: 1.76
18 | YLHSCTPAWMCTGF (tested as crude clonal phage supernatant) [Phage-2064] | 0.0668 | 1.77 |  |  | 
19 | VGNWCKPAWMCEMM (Tested as clonal phage supernatant; not shown: pIII filament protein of the bacteriophage to which the peptide is fused for display) [Phage-2074 (peptide-180 library clone, SEQ ID NO: 2390)] |  |  |  |  | Anti-PSMA Fab signal in the presence of PSMA [5]: 0.0681; Anti-PSMA Fab (SEQ ID NOs: 19, 20) signal [6]: 1.76
20 | VAKMCIPSWMCAEQ (cysteine pairing not given here; also: fused to phage pIII, pIII sequence and linker not given here, Tested as clonal phage supernatant; not shown: pIII filament protein of the bacteriophage to which the peptide is fused for display) [Phage-2073 (peptide-180 library clone, SEQ ID NO: 2389)] |  |  |  |  | Anti-PSMA Fab signal in the presence of PSMA [5]: 0.0548; Anti-PSMA Fab (SEQ ID NOs: 19, 20) signal [6]: 1.76

Row | Binder | Anti-PSMA Fab signal in the presence of PSMA (phage binding ELISA) [1] | Anti-PSMA Fab signal (phage binding ELISA) [2] | Anti-PSMA Fab signal [3] | Anti-PSMA Fab signal in the presence of PSMA [4] | also measured
21 | VEKWCTPPWMCSLF (tested as crude clonal phage supernatant) [Phage-2057] | 0.1 | 1.77 |  |  | 
22 | IEKWCIPEWMCEYT (Tested as clonal phage supernatant; not shown: pIII filament protein of the bacteriophage to which the peptide is fused for display) [Phage-2078 (peptide-180 library clone, SEQ ID NO: 2394)] |  |  |  |  | Anti-PSMA Fab signal in the presence of PSMA [5]: 0.0826; Anti-PSMA Fab (SEQ ID NOs: 19, 20) signal [6]: 1.75
23 | FPQWCIPIWMCEHT (tested as clonal phage supernatant) [Phage-2052] |  |  | 1.78 | 0.065 | 
24 | ADKWCTPTWMCQWL (Tested as clonal phage supernatant; not shown: pIII filament protein of the bacteriophage to which the peptide is fused for display) [Phage-2075 (peptide-180 library clone, SEQ ID NO: 2391)] |  |  |  |  | Anti-PSMA Fab signal in the presence of PSMA [5]: 0.0745; Anti-PSMA Fab (SEQ ID NOs: 19, 20) signal [6]: 1.76
25 | EVKWCTPEWMCAFL (cysteine pairing not given here; also: fused to phage pIII, pIII sequence and linker not given here, tested as clonal phage supernatant) [Phage-2044] |  |  | 1.79 | 0.0578 | 
26 | VAKWCTPPWMCAWL (cysteine pairing not given here; also: fused to phage pIII, pIII sequence and linker not given here, tested as clonal phage supernatant) [Phage-2048] |  |  | 1.78 | 0.197 | 
27 | DWRLCIPEWMCERL (Tested as clonal phage supernatant; not shown: pIII filament protein of the bacteriophage to which the peptide is fused for display) [Phage-2079 (peptide-180 library clone, SEQ ID NO: 2395)] |  |  |  |  | Anti-PSMA Fab signal in the presence of PSMA [5]: 0.0875; Anti-PSMA Fab (SEQ ID NOs: 19, 20) signal [6]: 1.75
28 | AWKSCIPSWMCEVQ (tested as crude clonal phage supernatant) [Phage-2058] | 0.0942 | 1.77 |  |  | 
29 | IGPWCIPPWMCDHR (tested as crude clonal phage supernatant) [Phage-2071] | 0.0893 | 1.76 |  |  | 
30 | VVHWCIPEWMCERI (tested as clonal phage supernatant) [Phage-2053] |  |  | 1.78 | 0.098 | 
31 | APKLCIPNWMCVSM (tested as clonal phage supernatant) [Phage-2055] |  |  | 1.77 | 0.0746 | 
32 | VDHWCTPAWMCDGF (tested as clonal phage supernatant) [Phage-2047] |  |  | 1.78 | 0.106 | 
33 | WDNWCTPLWMCQGF (Tested as clonal phage supernatant; not shown: pIII filament protein of the bacteriophage to which the peptide is fused for display) [Phage-2080 (peptide-180 library clone, SEQ ID NO: 2396)] |  |  |  |  | Anti-PSMA Fab signal in the presence of PSMA [5]: 0.0794; Anti-PSMA Fab (SEQ ID NOs: 19, 20) signal [6]: 1.75
34 | VSIMCKPMWMCSGT (tested as crude clonal phage supernatant) [Phage-2066] | 0.072 | 1.77 |  |  | 
35 | YDHWCTPMWMCHGM (tested as crude clonal phage supernatant) [Phage-2069] | 0.0688 | 1.76 |  |  | 
36 | VMPWCIPQWMCVGE (tested as clonal phage supernatant) [Phage-2049] |  |  | 1.78 | 0.0873 | 
37 | MDHWCTPPWMCEGW (tested as clonal phage supernatant) [Phage-2042] |  |  | 1.79 | 0.0642 | 
38 | PVKWCIPSWMCSVD (tested as crude clonal phage supernatant) [Phage-2067] | 0.0738 | 1.76 |  |  | 
39 | VPKWCTPAWMCNWN (tested as clonal phage supernatant) [Phage-2051] |  |  | 1.78 | 0.12 | 
